# Assay results taken from patent publication US20240270840A1 (NECTIN THERAPEUTICS, published 2024).
# Residue numbers refer to the chain shown, from its start. In names and notes the source's numbering stands.
# T1: Human CD112R (PVRIG) (human, UniProt Q6DKI7 41-171, limits assumed)
# T1 sequence (looked up): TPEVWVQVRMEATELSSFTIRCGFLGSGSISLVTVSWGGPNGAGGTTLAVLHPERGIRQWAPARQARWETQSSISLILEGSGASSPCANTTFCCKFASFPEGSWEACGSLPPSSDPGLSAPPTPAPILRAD
# B1: VH0K1 N28T (antibody, V domains shown)
# VH: QVQLQQPGAELVKPGTSVKLSCKASGYTFTSYWINWVKLRPGQGLEWIGDIYPGSYIPNYNEKFKNKATLTVDTSSSTAYMQLTSLASEDSALYYCAGGYFDVWGAGTTVTVSS
# VL: DIVMTQSPDSLSVSLGERATINCKSSQSLLSSGNQKNYLAWYQQKPGQPPKLLIYGASTRESGVPDRFTGSGSGTDFTLTISSLQAEDVAVYYCQNDHSYPYTFGQGTKLEIK
# B2: VH9K2 (antibody, V domains shown)
# VH: QVQLVQSGAEVKKPGSSVKVSCKASGYTFTSYWINWVKLAPGQGLEWIGDIYPGSYIPNYNEKFKNRATLTVDTSASTAYMELSSLRSEDTAVYYCAGGYFDVWGQGTTVTVSS
# VL: B1 VL with S12A
# B3: VH9K0 (antibody, V domains shown)
# VH: B2 VH
# VL: B1 VL with D9S, L15A, R18K, A19V, I21M, N22S, L84V, V89L, Q106G
# B4: VH0K3 N28T (antibody, V domains shown)
# VH: B1 VH
# VL: B1 VL with S12A, T69S
# B5: VH0 N28A Vk0 (antibody, human IgG1, V domains shown)
# VH: B1 VH with T28A
# VL: B1 VL with D9S, L15A, R18K, A19V, I21M, N22S, L84V, V89L, Q106G
# notes: Variant of VH0K0
# B6: VH0 N28S Vk0 (antibody, human IgG1, V domains shown)
# VH: B1 VH with T28S
# VL: B1 VL with D9S, L15A, R18K, A19V, I21M, N22S, L84V, V89L, Q106G
# notes: Variant of VH0K0
# B7: VH0 N28T Vk0 (antibody, V domains shown)
# VH: B1 VH
# VL: B1 VL with D9S, L15A, R18K, A19V, I21M, N22S, L84V, V89L, Q106G
# notes: Variant of VH0K0; also called VH0K0 N28T
# B8: VH0 N28Q Vk0 (antibody, human IgG1, V domains shown)
# VH: B1 VH with T28Q
# VL: B1 VL with D9S, L15A, R18K, A19V, I21M, N22S, L84V, V89L, Q106G
# notes: Variant of VH0K0
# B9: VH0 N28D Vk0 (antibody, human IgG1, V domains shown)
# VH: B1 VH with T28D
# VL: B1 VL with D9S, L15A, R18K, A19V, I21M, N22S, L84V, V89L, Q106G
# notes: Variant of VH0K0 without the N-linked glycosylation motif of heavy chain CDR1
# B10: VH0 T30A Vk0 (antibody, human IgG1, V domains shown)
# VH: B1 VH with T28N, T30A
# VL: B1 VL with D9S, L15A, R18K, A19V, I21M, N22S, L84V, V89L, Q106G
# notes: Variant of VH0K0
# B11: VH11K2 as tested in Table 4 (humanized scFv variant) (scFv, V domains shown)
# VH: B2 VH with K38R, L39Q
# VL: B1 VL with S12A
# notes: Format as for m33
# B12: VH0K0 as tested in Table 4 (scFv of VH0K0) (scFv, V domains shown)
# VH: B1 VH with T28N
# VL: B1 VL with D9S, L15A, R18K, A19V, I21M, N22S, L84V, V89L, Q106G
# B13: VH11K3 as tested in Table 4 (humanized scFv variant) (scFv, V domains shown)
# VH: B2 VH with K38R, L39Q
# VL: B1 VL with S12A, T69S
# notes: Format as for m33
# B14: VH10K2 as tested in Table 4 (humanized scFv variant) (scFv, V domains shown)
# VH: B2 VH with K38R, L39Q, R87A, V93L
# VL: B1 VL with S12A
# B15: VH11K1 as tested in Table 4 (humanized scFv variant) (scFv, V domains shown)
# VH: B2 VH with K38R, L39Q
# VL: B1 VL
# notes: Format as for m33
# B16: VH10K3 as tested in Table 4 (humanized scFv variant) (scFv, V domains shown)
# VH: B2 VH with K38R, L39Q, R87A, V93L
# VL: B1 VL with S12A, T69S
# notes: Format as for m33
# B17: VH0K2 N28T (antibody, V domains shown)
# VH: B1 VH
# VL: B1 VL with S12A
# B18: VH9K3 (antibody, V domains shown)
# VH: B2 VH
# VL: B1 VL with S12A, T69S
# B19: VH11K0 (antibody, V domains shown)
# VH: B2 VH with K38R, L39Q
# VL: B1 VL with D9S, L15A, R18K, A19V, I21M, N22S, L84V, V89L, Q106G
# B20: VH10K1 (antibody, V domains shown)
# VH: B2 VH with K38R, L39Q, R87A, V93L
# VL: B1 VL
# B21: VH9K1 (antibody, V domains shown)
# VH: B2 VH
# VL: B1 VL
# B22: VH10K0 (antibody, V domains shown)
# VH: B2 VH with K38R, L39Q, R87A, V93L
# VL: B1 VL with D9S, L15A, R18K, A19V, I21M, N22S, L84V, V89L, Q106G
# Target: T1, Human CD112R (PVRIG)
# Assay: SPR (Biacore); purified full antibody; * limit of the Biacore instrument sensitivity
Kd [nM],Relative Kd (against VH0K0 N28T),koff [s⁻¹],kon [M⁻¹ s⁻¹],Binder
0.0259,0.21,8.3e-06,320000,B1
0.0432,0.34,1.3e-05,301000,B2
0.0103,0.08,3.09e-06,300000,B3
0.0321,0.25,1.06e-05,330000,B4

# Target: T1, Human CD112R (PVRIG)
# Assay: affinity of glycosylation-motif variants (Table 2; method not named there)
Kd [nM],Relative Kd (against VH0Vk0),Binder
0.15,0.9,B5
0.116,0.66,B6
0.102,0.61,B7
0.116,0.69,B8
0.122,0.73,B9
0.106,0.63,B10

# Target: T1, Human CD112R (PVRIG)
# Assay: binding kinetics to human CD112R (Table 4; scFv variants by paragraph 288)
Kd [nM],Relative Kd (against VH0K0),koff [s⁻¹],kon [M⁻¹ s⁻¹],Binder
0.191,0.62,0.000105,552000,B11
0.307,1,8.89e-05,290000,B12
0.19,0.62,0.000101,530000,B13
0.214,0.7,0.000133,623000,B14
0.165,0.54,0.000101,630000,B15
0.197,0.64,0.000107,545000,B16

# Target: T1, Human CD112R (PVRIG)
# Assay: SPR (Biacore); purified full antibody
Kd [nM],Relative Kd (against VH0K0 N28T),koff [s⁻¹],kon [M⁻¹ s⁻¹],Binder
0.126,1,5.02e-05,400000,B7
0.109,0.87,4.34e-05,398000,B17
~0.154,1.22,1.06e-05,330000,B18
0.101,0.8,3.19e-05,316000,B19
0.119,0.94,4.18e-05,351000,B20
0.111,0.87,3.87e-05,350000,B21
0.135,1.07,4.66e-05,345000,B22
